Results as given in publication PMC4627693.

Tested on: Cys-Srctide (Biotin-ZZICGEFRRR)
Assay: cross-linking

c-Src tyrosine kinase (recombinant)
percent conversion to crosslinked product: 40% conversion in 25 minutes
